Series [1] deals with the molecule itself. The experiment in a line: TIRF number and brightness (N&B) analysis; live SH-SY5Y cells, plasma membrane; brightness normalised to monomeric EGFP or mCherry; alone or co-transfected.
The target in series [2] is T1, Arc-mCherry (mouse), Q9WV31.
T1 chain: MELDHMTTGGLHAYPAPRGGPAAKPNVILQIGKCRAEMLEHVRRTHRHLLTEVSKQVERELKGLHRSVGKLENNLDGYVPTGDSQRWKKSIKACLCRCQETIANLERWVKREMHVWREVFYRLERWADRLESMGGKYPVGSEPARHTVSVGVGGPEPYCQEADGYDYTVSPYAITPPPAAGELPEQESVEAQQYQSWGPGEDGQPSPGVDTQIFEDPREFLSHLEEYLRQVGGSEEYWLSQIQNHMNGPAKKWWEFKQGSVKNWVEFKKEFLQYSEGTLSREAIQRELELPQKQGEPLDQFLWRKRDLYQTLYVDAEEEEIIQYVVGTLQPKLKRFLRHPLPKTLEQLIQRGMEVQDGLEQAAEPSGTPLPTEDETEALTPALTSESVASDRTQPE
The series is described as above. The conditions noted are these: remark: other sources report otherwise.

The target in another series is T2, His-PICK1 (human, UniProt Q9NRD5 1-415).
T2 construct: also called recombinant His-PICK1; source: E. coli BL21-Codon(+) DE3, pQE-80L, purified (HisTrap; SEC when needed)
The experiment in a line: pull-down; soluble His-PICK1 (1, 5 and 10 µM) with GST-Arc (1 µM) or GST (1 µM) bound to glutathione-agarose, or resin alone; 20 mM HEPES pH 7.5, 100 mM NaCl, 1 mM DTT, 1 h at 4 °C; bound PICK1 from SDS-PAGE and BCA assay. Particulars: both partners purified.

Series [3] addresses T1, Arc-mCherry (mouse), Q9WV31. The experiment in a line: photon counting histogram (PCH) brightness analysis; live SH-SY5Y cells, cytosol; brightness normalised to monomeric EGFP or mCherry; co-transfected with the other construct or with the free fluorescent protein; 20 to 1,500 nM. Particulars: remark: other sources report otherwise.

A word on the stoichiometry N: it is a count of units in the complex or per binding partner.

B1: EGFP-PICK1 (natural protein, human, UniProt Q9NRD5 1-415, looked up)
chain: MFADLDYDIEEDKLGIPTVPGKVTLQKDAQNLIGISIGGGAQYCPCLYIVQVFDNTPAALDGTVAAGDEITGVNGRSIKGKTKVEVAKMIQEVKGEVTIHYNKLQADPKQGMSLDIVLKKVKHRLVENMSSGTADALGLSRAILCNDGLVKRLEELERTAELYKGMTEHTKNLLRAFYELSQTHRAFGDVFSVIGVREPQPAASEAFVKFADAHRSIEKFGIRLLKTIKPMLTDLNTYLNKAIPDTRLTIKKYLDVKFEYLSYCLKVKEMDDEEYSCIALGEPLYRVSTGNYEYRLILRCRQEARARFSQMRKDVLEKMELLDQKHVQDIVFQLQRLVSTMSKYYNDCYAVLRDADVFPIEVDLAHTTLAYGLNQEEFTDGEEEEEEEDTAAGEPSRDTRGAAGPLDKGGSWCDS
notes: PICK1, 'a human variant of PICK1' ligated to EGFP at the N terminus; source: SH-SY5Y cells, transfected, in live cells; not shown: EGFP, N-terminal, kept
With B1, the “stoichiometry N” value in series [1] was 2.

B2: GST-Arc (natural protein, mouse, UniProt Q9WV31 1-396, looked up)
chain: T1 chain
notes: Arc (activity-regulated cytoskeleton-associated protein, Arg3.1), mouse cDNA; also called Arg3.1; Activity-regulated cytoskeleton-associated protein; source: pGST.parallel 1 vector, purified (glutathione agarose resin, eluted with 50 mM glutathione; SEC when needed)
B2 had a stoichiometry N in series [2] of 2. Also, the binding result with His-PICK1 was “binds”. In series [3], this molecule had a normalized brightness (Norm. ε) of 1.37.

(Values after article PMC6168463, “Arc/Arg3.1 has an activity-regulated interaction with PICK1 that results in altered spatial dynamics” (Scientific Reports, 2018).)
